From the supplement of paper PMC9170038

These sequences were tested on K4 kissing-loop RNA reporter (assay: apparent KD of K4 kissing-loop reporter; higher = weaker reporter binding). Settings: Eterna round: R107; input ligand: FMN 200 uM.
Description: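 RNA-MaP round R107: designed RNA switches with theophylline, tryptophan, arginine or FMN aptamers are transcribed on-chip within common flanks. They are titrated with a labelled K4 kissing-loop RNA reporter in RNA-MaP buffer (100 mM Tris pH 7.5, 80 mM KCl, 4 mM MgCl2), without ligand or with the indicated ligand. Median apparent KD per design.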
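Also: bound reporter read as fluorescence of individual clusters on recovered sequencing chips by microscopy, with normalized cluster intensities fitted with a binding model.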

| Sequence | apparent KD of K4 kissing-loop reporter [nM] |
| --- | --- |
| GGCAGAGUGAUGUUCGCCCUUUACCUUGAUACCAGUUCAUCUCAAAACCCUUGGCAGCAAGUGUGUAAGAGCGGUAUUGGUCAAU [theeternabot_exclusion_KL_Theo_A_1] | 356 |
| GGAUCCACCAGUGAUGUUGGAGAAAACUCUAAGGAUAUGACGAAAGUCAGAAGGUAGUAGACUGGACAAAGUCCGGUCGGAUCCA [FmnA 23 U30+A56] | 583 |
| GGGCGCGGCGCGGCCGCCACUGGGCCUGGGCGCUCGCUGAGUGAUGUUCGUCGGCGGCUGGGUCGUAGGACCGGGUGCCGGCUGG [BDazzled - #4 SS Tryptophan B] | 735 |
| UGAUACCAGACGGCCGCCACUUCCGUAAGUCAAAGACUUACCAAGGGAAUCGUCCAGUGAUGUUGGAGGACCGGGUCUGGUAUCU [FiskerMod 6 - Jieux - Exclusion - Tryptophan B] | 960 |
| GCCGUAGAUUGAAGGAGCGCCUUCUUACCAAGAGUGAUGUUCUUUGGUACCAUGUUCAGCAGGCAGGUAGGUCGCAAUCUACGGC | 195 |
| GGUGCUGUCUGUGCCGCCCUCCUCGUCCCUCGAGGACCGGUACGGCCGCCACUCGAGUGAUGUUCGGGUAGCGAUCCCUGCUAGC [Bdazzled - #18 Exc. Tryptophan A] | 275 |
| AGCAGUGAUGUUGCAUUUAUAAAGACCGAUACCAGUAUCGAUAGAUACCCUUGGCAGCGGAUUUCCGCAACGACUAGGAAACUAG [Ex Theophylline A K4 13] | 404 |
| AUUUAGACGAGUGAUGUUCGUGUUAUUACAGAGGAUAUGCGUAAUUGCAGAAGGCUGUAUUUAUAUAUGUUAUGUAGUUUUAAAA [whbob_Ex_FMNA__2th184] | 87.3 |
| UGUGUUUACCUGACUCAGUGAUGUUGAGAAGGAGCGUGCAAACGCACAGGUAGGUCGCUCAACCUAAAUUCAGGUGAGCACUAAA | 568 |
| UAAGAGGACCACUGCAAGAGUCCUCGAAUACGAGGACCGGUACGGCCGCCACUCGAUAAUUUGCAGUGAUGUUGCAAGUAAGAAU [BrourdMod 5 - Jieux - Same State Tryptophan A] | 115 |
| CCGGGCGGCCGAAGGAGCGGGCGGACCCGAGUGAUGUUCGGGUGGACCGUGAGGUCCGGUGCCCAGGUAGGUCGCGGUUCCGCCC [#2 Same State - Arginine B Attempt #5 (HarryS)] | 117 |
| UAUUAAUAAUUAUUCUAGUGAUGUUAGAUACGAGGACCGGUACGGCCGCCACUCGCUUAUUGGUUUAUAAAUUUUAUAUUAUUUA [JR_SSTryptoA_Sub017] | 185 |
| CACCGCAACUGAAGGAGCGCGCCAGUGAUGUUGGACGGCUUUGUCAAGGAAACUGCACCGGUGCAGGUAGGUCGCAGUUCGCGGC [Ededisa] | 319 |
| CCCAAAAUAUGCAGUGAUGUUGCAACUGAUACCAGUAUCGAAAGAUACCCUUGGCAGCGGAAAACCGCUACGUAAUUUAAAAGGG [Ex Theophylline A K4 18] | 200 |
| GGCCGGAAGGCGAGCGCUCCCACUCCGGAAGGAGCGCCCGGAAGGGCAGGUAGGUCGCCGGAGUGAUGUUCCGGUGGAGGGCUCG [#2 Exclusion - Arginine A Attempt #19 (Inspired by Omei)] | 141 |
| CGAGUGAUGUUCGUUCGUUUAUUUCGUUGACAGGAUAUGCGGAAACGCAGAAGGGUCACCUUUGAGUUAACGGAAUUUACGUUAU [Ex FMN A 27] | 614 |
| CCGCUACCCUCAGGAUAUUAAAUAUUAGUGAUGUUAGUAAACCGAUGGCGAAAGCCAUCGGUAUGUUGAGAAGGGAGGGUAGCGG [whbob_SS_FMNB__2th197] | 403 |
| AUUCAUUUCAGAGGAUAUCGAUGGAGAGUGAUGUUCUCCCAUAGCCAGUGAUGUUGGCUAGCUAUUCGAGAAGGCUGUGGGUGGA [Same State FMN B GF 27] | 141 |
| GCUAUGGUAGGAAGGAGCGCUACUUUGUUUUUACGAGUGAUGUUCGGAAGCAGAGUGUUAAAGCAGGUAGGUCGCCUACUAUAGC [Arginine B K4 20] | 171 |
| ACACUAUCGUCAUAGACGGUAGUGAAAGCUCAGGAUAUGAGUGAUGUUAGAAGGGAGUAAAUCUUAGGUAUCGAAUAGAUACCAA [FmnA 7 #K4BetweenAptamer #OpenEnded] | 1220 |
| UCCUAGGCUCGAAAGAGCCUAGGUAAGACUCAGGAUAUCUGGAAACAGAGAAGGGAGCUACUAGUGAUGUUAGGAAUUCCCAUUU | 116 |
| UUAAUAAUUCAAGGAUAUGUUUUCUAUUUCGAGUGAUGUUCGGAAUUAAUAAAUUUAAAAGAUUAUACAGAAGGUGAUGGAUAGU [Cynwulf-mod#4] | 114 |

| Sequence | apparent KD of K4 kissing-loop reporter [nM] |
| --- | --- |
| GACAUCUAUCGCCGAUAGUGUUUAUCUUGGGAGGAUAUGUCAGCGGACAGAAGGCCCAGUGAUGUUGGGUAGAUGACCGUUGCUU [Edbiza] | 242 |
| AGUGGACGUGUCCGGAGUGAUGUUCCGGAUACCAGACACGAAAGUGUCCCUUGGCAGCCGGAGUGAUGUUCCGGCGUUCACUAAA [Omei KL Theo A Exc B v1] | 270 |
| CUGGGUUGACGAAAAGUCAACAAAAGAGAAGGAGCGCACGAAAGUGCAGGUAGGUCGCUCAAUCCAGUGAUGUUGGGUCAUCCAG [#SwitchBubble 14 #K4Late] | 568 |
| GGAUAGGACAGAGGAUAUGGUAGUGAUGUUACCAAACUGGUUACUAAUGUCAGAAAACUGGCAAAUCCAGAAGGCUGUCCUAUCG [KL-XFMN-B13] | 278 |
| GUCUCCGUCGAUGAUACCAGUCGAUGUACGUCAGGUACCCUUUGAGUGAUGUUCAGAUUAGACCCUUGGCAGCAUAUCGAGGCUC [theeternabot_exclusion_KL_Theo_B_24] | 370 |
| GGGAACUCUUACGAUACCAGCCGGAGUGAUGUUCCGUGCUUGGACGUAGUAACCCGCACCGGCCCUUGGCAGCGUGGAUCUUGUG [Esgeonin] | 80.6 |
| UCCUAGGCUCGAAAGAGCCUAGGAUUAUCUCAGGAUAUCCGGAAACGGAGAAGGGAGAAACUAGUGAUGUUAGGGAUUCCCUAUU | 574 |
| UUUGGUUUCUCGGCCGCCACUCGUUGUCUAUGGGCUUCAGGGAUAUAGUGAUGUUAUGUAUAGAAGAGGACCGGGAGAAGGUUUU [ExTryptoB.Dv] | 427 |
| GUGGGCUCGGGAGGAUAUGAGUCUAGUGAUGUUAGGCGGUCCAUGCGCGUGGCGCGUUAUGCCCUUUUAGAAGGCCCGAGCCCUC [#2 Exclusion - FMN B Attempt #24 (HarryS)] | 99.8 |
| GGUGACGGCCAGGAGUGAUGUAUAGAAUAGCGAGGACCGGUACGGCCGCCACUCGUGAAGAAAAGGGAGUGAUGUUCCGUAAUGU [Kazoo] | 87.8 |
| GUGCGGUGGAGGCUACCGCUACUCUGAGAAGGAGCGCAGAAGACUGCAGGUAGGUCGCUUAGAGCUUGCAGUGAUGUUGCAAGUU [KL-SSArg-A18] | 134 |
| CUUCUUCUUCCAAUCUCGGCCAACACGGGACGAGGACCGGUACGGCCGCCACUCGUGCAGUGAUGUUGCACGAUGGUGACGGAGA [Engebiisso] | 98.5 |
| CCGCCGGUCGGAAGGAGCGCACGCCAGAGUGAUGUUCUGGCGCGGGCACUUUAUGCCCGCGUGCAGGUAGGUCGCCGAUUCUGGC [Mabema] | 464 |
| UGGCGUAGAACCGCCGAAUCGCUGUGAGAAGGAGCGGUAAAAUUGCCAGGUAGGUCGCUCACAGCCUCACAGUGAUGUUGUGGGA [Cequralaza] | 758 |
| GUAUCGCUAGGAGGAUAUUUCAAUUCGCCUAUAAAAGGUGAUACGGAGUGAUGUUCCGAUUUACGGAAAGAAGGCCUAGUGAUAC [FMN B 9] | 137 |
| AACUGUCAAGGACAACAUUACUGAGGUGAUACCAGCAUCGAAAGAUGCCCUUGGCAGCACUAACUUGCAGUGAUGUUGCAAGUAA [BrourdMod 2 - Jieux - Exclusion - Theophylline A] | 211 |
| UGGACGUUAUACAAUAAGUAUAACUGGGAUACCAGUGACGAAAGUCACCCUUGGCAGCUCAACUGCCAGUGAUGUUGGUAGUCCA [Astros-Eli-mod#5] | 273 |
| AGGUCCGAGCCUGCAAAGGCUCGGACCUGUUAGGAUAUGACGUUAUUCAGAAGGGAUGGGUGGAGUGAUGUUCCACCCGCAAGGG [#2 Same State - FMN A Attempt #7 (HarryS)] | 142 |
| AAUUUAGUGACGGCCGCCACUAGGGUGAUUUUUUUGUUUGAGUGAUGUUUUGAUGUUUGAUUUUGUAGGACCGGGUUAGGUGAUG [cccmullin] | 327 |
| AGUUCUUGCCGAAGGAGCGAGGCAGAGUGAUGUUCUGCAAAGGUCGAAAGACCUUAACUGCCUCAGGUAGGUCGCGGCAUGAACA [KL-XARG-B23] | 622 |
| GAAGUACAGGCGGCCGCCACUAGUGAUGUUAGUGAUAAAAGAUAUAGUAAAUAUCGGCAUGUAGAUAGGACCGGGCCUGAUGGAG [ggbgmullin] | 311 |

Same assay, conditions: Eterna round: R107; input ligand: arginine 13.2 mM

| Sequence | apparent KD of K4 kissing-loop reporter [nM] |
| --- | --- |
| GGCAGAGUGAUGUUCGCCCUUUACCUUGAUACCAGUUCAUCUCAAAACCCUUGGCAGCAAGUGUGUAAGAGCGGUAUUGGUCAAU [theeternabot_exclusion_KL_Theo_A_1] | 306 |
| GGAUCCACCAGUGAUGUUGGAGAAAACUCUAAGGAUAUGACGAAAGUCAGAAGGUAGUAGACUGGACAAAGUCCGGUCGGAUCCA [FmnA 23 U30+A56] | 376 |
| GGGCGCGGCGCGGCCGCCACUGGGCCUGGGCGCUCGCUGAGUGAUGUUCGUCGGCGGCUGGGUCGUAGGACCGGGUGCCGGCUGG [BDazzled - #4 SS Tryptophan B] | 533 |
| UGAUACCAGACGGCCGCCACUUCCGUAAGUCAAAGACUUACCAAGGGAAUCGUCCAGUGAUGUUGGAGGACCGGGUCUGGUAUCU [FiskerMod 6 - Jieux - Exclusion - Tryptophan B] | 744 |
| GCCGUAGAUUGAAGGAGCGCCUUCUUACCAAGAGUGAUGUUCUUUGGUACCAUGUUCAGCAGGCAGGUAGGUCGCAAUCUACGGC | 142 |
| GGUGCUGUCUGUGCCGCCCUCCUCGUCCCUCGAGGACCGGUACGGCCGCCACUCGAGUGAUGUUCGGGUAGCGAUCCCUGCUAGC [Bdazzled - #18 Exc. Tryptophan A] | 194 |
| AGCAGUGAUGUUGCAUUUAUAAAGACCGAUACCAGUAUCGAUAGAUACCCUUGGCAGCGGAUUUCCGCAACGACUAGGAAACUAG [Ex Theophylline A K4 13] | 423 |
| AUUUAGACGAGUGAUGUUCGUGUUAUUACAGAGGAUAUGCGUAAUUGCAGAAGGCUGUAUUUAUAUAUGUUAUGUAGUUUUAAAA [whbob_Ex_FMNA__2th184] | 108 |
| UGUGUUUACCUGACUCAGUGAUGUUGAGAAGGAGCGUGCAAACGCACAGGUAGGUCGCUCAACCUAAAUUCAGGUGAGCACUAAA | 380 |
| UAAGAGGACCACUGCAAGAGUCCUCGAAUACGAGGACCGGUACGGCCGCCACUCGAUAAUUUGCAGUGAUGUUGCAAGUAAGAAU [BrourdMod 5 - Jieux - Same State Tryptophan A] | 167 |
